From patent US8790663B2, “Antigenic determinants of human death receptor DR5” (Institute of Basic Medical Sciences, Chinese Academy of …, priority 2009, dated 2014)

Key:
AD5-10 [1] = test: Synthetic peptides binding AD5-10 and blocking its tumoricidal activity on Jurkat cells; type: cell-based, mouse
Experimental: (§1) The human lymphocyte leukemia Jurkat cells in exponential phase were seeded in the 96-well plate at the density of 2×10^4/well. Then synthetic peptides were sufficiently mixed with AD5-10 according to corresponding concentrations and incubated at 37° C. for 1 h. The mixture was then added to the culture wells containing the tumor cells. CCK-8 agent (Dojindo Laboratories, Kumamoto, Japan) was used and the OD values (wavelength […]) were detected 2 h after the reaction. The OD value of the wells having no cells was set to be “0”, the Relative cell viability=OD value of treated well/OD value of untreated sample×100%.

AD5-10 [2] = test: Oriented Peptide Array Library: binding of peptides to AD5-10; set-up: species or system mouse; conditions: for binding capabilities to AD5-10 (antigenicity): AD5-10 2 μg/ml
Description: A series of the derivative peptides comprising the core peptide (as shown in Tab. 1 and 2) were synthesized according to the amino acid sequence of human DR5 (NCBI Acc #: NP_671716.1) provided in NCBI protein database. Subsequently, the peptide arrays as said above were spotted on nitrocellulose membranes using an ASP222 SPOT robot workstation (one dot corresponds to one polypeptide of which the concentration is about 5 nmol), the homogenicity of the protein amount was detected with ninhydrin staining before the corresponding detection. The membrane was blocked with 3% BSA in TBS-T solution for 1 h at room temperature and followed by incubation with corresponding specific primary antibodies (the final concentration is 2 μg/ml) at 4° C. over night. The array membrane was then incubated with HRP-conjugated goat anti-mouse polyclonal antibodies for 2 h at room temperature and then chromogenic substrate ECL was added to develop the membrane.

[3] = system: human T lymphocyte leukemia Jurkat cells; test: Cell viability of Jurkat cells (CCK-8); type: cell-based; conditions: different concentrations, 8 hours
Experimental: as §1

[4] = system: human colon cancer cells HCT116; test: Tumoricidal activity to human colon cancer cells HCT116 (microscopy, CCK-8); type: cell-based
Experimental: HCT116 cells were treated with TRAIL, AD5-10 and monoclonal antibodies Adie-1 and Adie-2 of different concentrations. […] The OD value of the wells having no cells was set to be “0”, the Relative cell viability=OD value of treated well/OD value of untreated sample×100%.

[5] = peptide at different concentrations

“AITQQDLAPQQRA (wild type epitope 2) [wild-type epitope 2]” was tested, and the “binding to AD5-10 and blocking of its cytotoxicity” value (“binding to AD5-10 and blocking” for short) (AD5-10 [1]; peptide 10 μM) was “can bind to AD5-10 and block its cytotoxicity” and the “binding to AD5-10 and blocking” value (AD5-10 [1]; [5]) was “can bind to AD5-10 and block its cytotoxicity”.

With “mutant epitope 1: synthetic peptide of wild-type epitope 1 with the key amino acid residues mutated (AQITQQDAAPQQRA; mutant epitope 1)” the “binding to AD5-10 and blocking” value (AD5-10 [1]; peptide 10 μM) was “cannot bind to AD5-10”.

With “ITQQDLAPQQRA (Extended sequence of SEQ ID NO. 1 which extends from the N-terminal of the said amino acid sequence to the C-terminal of the amino acid sequence in accordance with the amino acid sequence of DR5)” the “binding capabilities to AD5-10 (antigenicity)” value (AD5-10 [2]) was “the strongest”.

In the case of “TRAIL: tumor necrosis factor-related apoptosis inducing ligand, natural ligand for death receptors DR4 and DR5”, the “cell viability of Jurkat cells” value [3] is reported as “can inhibit the cell viability of human T lymphocyte leukemia Jurkat cells in a dose-dependent manner”, the “morphological changes and cell death characteristics of HCT116 cells observed under microscope” value ([4]; 500 ng/ml, 8 h) is reported as “Apparent morphological changes and cell death characteristics” and the “cell viability of HCT116 cells” value ([4]; different concentrations, CCK-8) is reported as “notably reduced with the increase of the treatment concentrations”.

With “ALITQQDLAPQQ (Extended sequence of SEQ ID NO. 1 which extends from the N-terminal of the said amino acid sequence to the C-terminal of the amino acid sequence in accordance with the amino acid sequence of DR5)” the “binding capabilities to AD5-10 (antigenicity)” value (AD5-10 [2]) was “the strongest”.

For “AQITQQDLAPQQRA (wild type epitope 1) [wild-type epitope 1]”, the “binding to AD5-10 and blocking” value (AD5-10 [1]; peptide 10 μM) was “can bind to AD5-10 and block its cytotoxicity” and the “binding to AD5-10 and blocking” value (AD5-10 [1]; [5]) was “can bind to AD5-10 and block its cytotoxicity”.

For “mutant epitope 2: synthetic peptide of wild-type epitope 2 with the key amino acid residues mutated (AITQQDAAPQQRA; mutant epitope 2)”, the “binding to AD5-10 and blocking” value (AD5-10 [1]; peptide 10 μM) was “cannot bind to AD5-10”.

For “QDLAP (Antigenic determinants recognized by the mouse anti-human death receptor DR5 monoclonal antibody AD5-10)”, the “epitope recognized by AD5-10” value (AD5-10 [2]) was “shortest amino acid sequence of the epitope recognized by AD5-10”.
